The test deals with calnexin (simian (endogenous in COS7)). The test can be described thus: co-IP.

Numbering of substitutions follows the chain as printed. Numbers in names are those of the source.

B1: GlyT2 A277T mutant (rat numbering; rat version of human A275T) (natural protein)
chain: MDCSAPKEMNKPPTNILEATVPGHRDSPRAPRTSPEQDLPAAAPAAAVQPPRVPRSASTGAQTFQSADARACEAQRPGVGFCKLSSPQAQATSAALRDLSEGHSAQANPPSGAAGAGNALHCKIPALRGPEEDENVSVGKGTLEHNNTPAVGWVNMSQSTVVLGTDGIASVLPGSVATTTIPEDEQGDENKARGNWSSKLDFILSMVGYAVGLGNVWRFPYLAFQNGGGAFLIPYLMMLALAGLPIFFLEVSLGQFASQGPVSVWKAIPALQGCGITMLIISVLIAIYYNVIICYTLFYLFASFVSVLPWGSCNNPWNTPECKDKTKLLLDSCVIGDHPKIQIKNSTFCMTAYPNLTMVNFTSQANKTFVSGSEEYFKYFVLKISAGIEYPGEIRWPLAFCLFLAWVIVYASLAKGIKTSGKVVYFTATFPYVVLVILLIRGVTLPGAGAGIWYFITPKWEKLTDATVWKDAATQIFFSLSAAWGGLITLSSYNKFHNNCYRDTLIVTCTNSATSIFAGFVIFSVIGFMANERKVNIENVADQGPGIAFVVYPEALTRLPLSPFWAIIFFLMLLTLGLDTMFATIETIVTSISDEFPKYLRTHKPVFTLGCCICFFIMGFPMITQGGIYMFQLVDTYAASYALVIIAIFELVGISYVYGLQRFCEDIEMMIGFQPNIFWKVCWAFVTPTILTFILCFSFYQWEPMTYGSYRYPNWSMVLGWLMLACSVIWIPIMFVIKMYLAPGRFIERLKLVCSPQPDWGPFLAQHRGERYKNMIDPLGTSSLGLKLPVKDLELGTQC
For the molecule B1, the amount coimmunoprecipitated with CNX, percent of wild-type GlyT2 is 289%.

B2: GlyT2 Y707C mutant (rat numbering; rat version of human Y705C) (natural protein)
chain: B1 chain with T277A, Y707C
B2 had an amount coimmunoprecipitated with CNX, percent of wild-type GlyT2 of 188%.

Source of the values: paper doi:10.1101/2021.03.24.436638.
